Experimental data taken from publication PMC10644391 (2023).
Ends that are not written are not given here.

Biological target: T1, HEG1 cytoplasmic tail 7-mer peptide cytoplasmic tail 7-mer (Homo sapiens, UniProt Q9ULI3, also: Cy5-labelled)
T1 chain: SRRRDYF
Assay: fluorescence polarization

- Kd: 13 nM
B1: KRIT1 417-736 (protein)
chain: KPYEKVRIYRMDGSYRSVELKHGNNTTVQQIMEGMRLSQETQQYFTIWICSENLSLQLKPYHKPLQHVRDWPEILAELTNLDPQRETPQLFLRRDVRLPLEVEKQIEDPLAILILFDEARYNLLKGFYTAPDAKLITLASLLLQIVYGNYESKKHKQGFLNEENLKSIVPVTKLKSKAPHWTNRILHEYKNLSTSEGVSKEMHHLQRMFLQNCWEIPTYGAAFFTGQIFTKASPSNHKVIPVYVGVNIKGLHLLNMETKALLISLKYGCFMWQLGDTDTCFQIHSMENKMSFIVHTKQAGLVVKLLMKLNGQLMPTERNS
